In this test the target is Rrp5 full length, recombinant (Rrp5_FL) (S. cerevisiae, UniProt Q05022 1-1729). Nature of the test: pull-down.
Sequence of Rrp5 full length, recombinant (Rrp5_FL) (Q05022 whole entry): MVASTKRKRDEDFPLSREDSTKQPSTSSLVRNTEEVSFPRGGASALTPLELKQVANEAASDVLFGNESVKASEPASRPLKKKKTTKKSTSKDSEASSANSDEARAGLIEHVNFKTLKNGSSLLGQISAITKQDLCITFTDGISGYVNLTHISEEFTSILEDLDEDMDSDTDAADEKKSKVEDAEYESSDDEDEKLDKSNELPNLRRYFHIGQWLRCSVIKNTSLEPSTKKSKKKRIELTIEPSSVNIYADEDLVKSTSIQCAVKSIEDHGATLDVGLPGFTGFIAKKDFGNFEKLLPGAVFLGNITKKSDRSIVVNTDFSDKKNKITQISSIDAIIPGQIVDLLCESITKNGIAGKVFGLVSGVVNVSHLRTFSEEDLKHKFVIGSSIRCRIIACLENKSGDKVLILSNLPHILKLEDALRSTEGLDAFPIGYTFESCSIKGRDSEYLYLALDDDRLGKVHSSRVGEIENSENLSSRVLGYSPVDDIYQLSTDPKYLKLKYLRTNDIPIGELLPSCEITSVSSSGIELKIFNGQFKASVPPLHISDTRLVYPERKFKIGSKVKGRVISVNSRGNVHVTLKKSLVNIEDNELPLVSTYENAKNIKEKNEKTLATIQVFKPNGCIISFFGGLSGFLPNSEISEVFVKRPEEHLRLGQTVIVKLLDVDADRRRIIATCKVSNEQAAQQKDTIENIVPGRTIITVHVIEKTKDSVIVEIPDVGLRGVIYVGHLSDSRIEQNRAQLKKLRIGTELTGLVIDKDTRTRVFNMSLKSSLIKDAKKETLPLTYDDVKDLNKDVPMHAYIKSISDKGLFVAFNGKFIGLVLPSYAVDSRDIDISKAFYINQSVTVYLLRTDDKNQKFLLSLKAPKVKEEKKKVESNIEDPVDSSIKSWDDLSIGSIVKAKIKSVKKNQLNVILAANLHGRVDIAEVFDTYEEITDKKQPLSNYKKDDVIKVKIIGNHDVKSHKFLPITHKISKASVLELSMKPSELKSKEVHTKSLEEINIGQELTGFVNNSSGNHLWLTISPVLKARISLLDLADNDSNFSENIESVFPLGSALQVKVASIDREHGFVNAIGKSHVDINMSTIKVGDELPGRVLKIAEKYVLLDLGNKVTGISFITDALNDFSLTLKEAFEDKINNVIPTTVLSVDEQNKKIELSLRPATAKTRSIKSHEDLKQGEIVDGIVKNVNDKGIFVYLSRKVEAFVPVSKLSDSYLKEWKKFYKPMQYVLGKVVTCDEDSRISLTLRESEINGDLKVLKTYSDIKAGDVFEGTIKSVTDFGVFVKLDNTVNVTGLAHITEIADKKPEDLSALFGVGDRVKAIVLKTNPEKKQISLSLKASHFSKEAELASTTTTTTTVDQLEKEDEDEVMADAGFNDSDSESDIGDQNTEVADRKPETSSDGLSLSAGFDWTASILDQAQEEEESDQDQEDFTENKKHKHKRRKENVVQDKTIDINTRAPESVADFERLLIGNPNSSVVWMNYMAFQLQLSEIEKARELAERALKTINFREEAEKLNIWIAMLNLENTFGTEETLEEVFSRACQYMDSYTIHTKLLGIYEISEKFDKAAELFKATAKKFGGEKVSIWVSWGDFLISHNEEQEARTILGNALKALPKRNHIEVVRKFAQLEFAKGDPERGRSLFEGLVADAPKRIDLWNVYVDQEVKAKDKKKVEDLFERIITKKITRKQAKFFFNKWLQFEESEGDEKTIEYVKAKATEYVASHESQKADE

B1: MBP-Krr1, recombinant (natural protein, S. cerevisiae, UniProt P25586 1-316, looked up)
chain: MVSTHNRDKPWDTDDIDKWKIEEFKEEDNASGQPFAEESSFMTLFPKYRESYLKTIWNDVTRALDKHNIACVLDLVEGSMTVKTTRKTYDPAIILKARDLIKLLARSVPFPQAVKILQDDMACDVIKIGNFVTNKERFVKRRQRLVGPNGNTLKALELLTKCYILVQGNTVSAMGPFKGLKEVRRVVEDCMKNIHPIYHIKELMIKRELAKRPELANEDWSRFLPMFKKRNVARKKPKKIRNVEKKVYTPFPPAQLPRKVDLEIESGEYFLSKREKQMKKLNEQKEKQMEREIERQEERAKDFIAPEEEAYKPNQN
For the molecule B1, the binding result is recorded as “binds”.

B2: MBP-Rrp36, recombinant (natural protein, S. cerevisiae, UniProt Q12481 1-300, looked up)
chain: MSYYFKNLKPDLNSDVEEDDGNLLESIMANKSKREIDEQESSDDELKTLSFGSLKKAETVIDEEDFKDTKPVHKKPITTTYREESFDEDEDSEDQSDEDAGFFEEDSEDETHHGQKVPKKKSKHAPVEQSSKKRVPRVRNIPGLEIPRNKRSNLYQDIRFDKSTGKALDSSIIRKRYQFLDEYREKEIDELQKLLQERKFLSKIDQGEREEMEQRLKSMKSRLQSMKNKDLEREILKEYENDMNKNNNTRYHLKKSEKRKVVQKWKFDHMKAKQREKVMERKRKKRLGKEFKQFEFHNRR
B2: the binding result is “binds”.

For the origin of these results see doi:10.1101/2021.09.06.459192 (bioRxiv, 2021).
